# Measurements: patent publication US20170002075A1 (AbbVie / Abbott, published 2017)
# B1: anti-human RAGE monoclonal antibody 4E5 (murine, hybridoma-derived) (antibody, V domains shown)
# VH: QVQLQQSGAELVRPGTSVKVSCKASGYAFNNYLIEWIKQRPGQGLEWIGVINPGSGGTNHNEKFKVKATLTADKSSSTAYIQLSSLTSDDSAVYFCARSAGTARARFAYWGQGTLVTVSA
# VL: DIQMTQSPSSLSASLGERVSLTCRASQDIGSSLNWLQQEPDGTIKRLIYATSSLDSGVPKRFSGSRSGSDYSLTISSLESEDFVDYYCLQYASFPFTFGSGTKLEIKR
# notes: also called mAb4E5; ML37-4E5
# B2: anti-human RAGE monoclonal antibody 7F9 (murine, hybridoma-derived) (antibody, V domains shown)
# VH: EEKLEESGGGLVQLGGSMKISCVASGFTLSNYWMDWVRQSPEKGLEWIAEIRLKSNYYSTHYAESVKGRFSISRDDSKGSVSLQMDNLTAEDTGIYFCARNAYWYFDVWGTGTTVTVSS
# VL: DIVMTQSHKFMSTSVGDRVSATCKASQDVGTSVAWYQQKLGQSPKLLIYWTSTRHTGVPDRFTGSGSGTDFTLTISNVQSEDLADYFCQQYNNYPLTFGDGTKLELKR
# notes: also called mAb7F9; MAb 7F9
# B3: anti-human RAGE monoclonal antibody 11E6 (murine, hybridoma-derived) (antibody, V domains shown)
# VH: QIQLVQSGPELKKPGETVKISCKASGYTFTNFGMNWVKQAPGKGLKWMGYINTNTGESIYSEEFKGRFAFSLETSASTAYLQINNLKNEDTATYFCARSRMVTAYGMDYWGQGTSVTVSS
# VL: DIVMTQSQKFMSTSVGDRVSITCKASQNVGTAVAWYQQRPGQSPKLLIFSASNRYTGVPDRFTGSGSGTDFTLTLSNMQPEDLADYFCQQYSSYPLTFGVGTKLELKR
# notes: also called mAb11E6; ML37-11E6
# Legend:
# [1] = target: T1, E. coli RAGE Construct #7, 6His-(Thr)-[RAGE (235-336)] (human); assay: ELISA: RAGE 235-336 (E. coli, D#1479) coated, mAb titrated, anti-mouse HRP conjugate, TMB
# T1 construct: Expressed in E. coli with an N-terminal 6His-(Thr) tag, which is part of the entry; also called RAGE protein #7
# T1 chain: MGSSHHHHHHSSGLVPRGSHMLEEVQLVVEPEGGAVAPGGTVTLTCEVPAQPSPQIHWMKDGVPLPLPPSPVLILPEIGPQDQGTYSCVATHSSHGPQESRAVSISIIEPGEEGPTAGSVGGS
# Procedure: (§1) Antigens (purified construct #1-7 proteins) were diluted into Coating Buffer [100 mM NaHCO₃, pH 8.2] to 1 μg/ml, and 100 μl of the resulting solution was then aliquoted into a 96-well Nunc Immuno Plate (Maxi-Sorb Surface, flat bottom, catalog #439454). The plate was sealed with sealing film and incubated at 4° C. overnight. The next day, the plate wells were each washed 3 times with 150 μL PBST buffer [Sigma PBS+0.05% Tween 20]. Then 300 ul of blocking solution (3% NFDM in PBST) was added to each well. The plate was incubated for 2 hours at room temperature and shaking at 100 rpm. After the incubation step, each well was again washed three times with 150 uL PBST. […] The plate was then sealed with sealing film and incubated for 2 hours at room temperature and shaking at 100 rpm. Next the antibody solution was drained out of the wells, and each well then washed three times with 200 ul PBST. To each well then 200 ul of a 1:5000 dilution (in PBST/1% NFDM) of conjugated secondary antibody [Donkey anti-mouse HRPO conjugate, Jackson Immuno Research, Catalog #715-035-150] was added. The plate was covered and allowed to incubate for 1 hour at room temperature while shaking at 100 rpm. Following this incubation, the solution was removed from the wells and each well was washed three times with 200 ul PBST. To each well 100 μL of HRPO substrate [3,3′,5′,5′-Tetramethylbenzidine Liquid Substrate (TMB), Supersensitive for ELISA, Sigma Catalog #T4444] solution was added and the plate incubated at room temperature for 10 minutes. Finally, 50 μL of 2M H₂SO₄ was added to each well to stop the reaction and the A₅₄₀ₙₘ of each well was measured using a microtiter plate reader.
# [2] = target: T2, RAGE-derived peptide 6 (human); assay: dot blot, non-denatured peptide on nitrocellulose
# T2 construct: Synthetic peptide with a free carboxyl terminus
# T2 peptide: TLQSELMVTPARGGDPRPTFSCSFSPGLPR
# Description: (§2) Dot blots were used to evaluate the binding of antibodies to peptides or fragments of RAGE in a non-denatured form. […] Peptides were ordered and synthesized by Biotrend according to standard methods (solid phases peptide synthesis on AMS 222 synthesizer using Fmoc/tBu-chemistry) containing a free carboxyl terminus. Peptides were HPLC-purified and analysis of every peptide for purity was done using RP-HPLC. […] The identities of peptides were verified by mass spectrometry.
# (§3) Dots consisting of different amount of protein/peptide (30 ng, 10 ng, 3 ng, 1 ng, 0.3 ng, 0.1 ng, 0.03 ng, and 0.01 ng) in a volume of 1 μl in 1×PBS were spotted onto a Hybond-ECL Nitrocellulose Membrane (Amersham, RPN68D) in duplicates. Membranes were dried and unspecific binding was blocked by shaking the membranes for 1 hour at room temperature with Western Blocking reagent (Roche, no. 1921673). Blocking reagent was discarded and the membranes were incubated with antibodies in a concentration of 7.14 nM (shaking, 1 hour at room temperature). […] Blots were washed 4 times (each time 5 minute incubation with shaking at room temperature) with 1×PBS. Blots were then incubated with goat anti mouse IgG AP secondary antibody (Sigma no. A-7434) diluted 1:2000 in Western Blocking Reagent (Roche, no. 192173). Incubation for 1 hour was as before (shaking, room temperature). The filters were washed 4 times (5 minutes each) in 1×PBS. Development of signals was according to manufacturers instructions with NBT/BCIP substrate solution (Roche, no. 1697471). Color development was stopped after 10 minutes with bi-distilled water.
# [3] = target: T3, RAGE-derived peptide 4 (human); assay: dot blot, non-denatured peptide on nitrocellulose
# T3 construct: Synthetic peptide with a free carboxyl terminus
# T3 peptide: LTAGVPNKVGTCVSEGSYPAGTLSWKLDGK
# Description: as §2, §3
# [4] = target: T4, RAGE-derived peptide 1 (human); assay: dot blot, non-denatured peptide on nitrocellulose
# T4 construct: Synthetic peptide with a free carboxyl terminus
# T4 peptide: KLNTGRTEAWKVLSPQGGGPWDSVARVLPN
# Description: as §2, §3
# [5] = target: T5, RAGE-derived peptide NtermR31 (human); assay: dot blot, non-denatured peptide on nitrocellulose
# T5 construct: Synthetic peptide with a free carboxyl terminus
# T5 peptide: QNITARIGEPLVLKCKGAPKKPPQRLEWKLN
# Description: as §2, §3
# [6] = target: T6, RAGE-derived peptide 5 (human); assay: dot blot, non-denatured peptide on nitrocellulose
# T6 construct: Synthetic peptide with a free carboxyl terminus
# T6 peptide: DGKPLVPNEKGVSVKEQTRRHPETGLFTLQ
# Description: as §2, §3
# [7] = target: T7, RAGE-derived peptide 2 (human); assay: dot blot, non-denatured peptide on nitrocellulose
# T7 construct: Synthetic peptide with a free carboxyl terminus
# T7 peptide: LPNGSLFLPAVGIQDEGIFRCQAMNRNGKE
# Description: as §2, §3
# [8] = target: T8, RAGE-derived peptide 7 (human); assay: dot blot, non-denatured peptide on nitrocellulose
# T8 construct: Synthetic peptide with a free carboxyl terminus
# T8 peptide: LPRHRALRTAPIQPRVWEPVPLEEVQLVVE
# Description: as §2, §3
# [9] = target: T9, RAGE-derived peptide 3 (human); assay: dot blot, non-denatured peptide on nitrocellulose
# T9 construct: Synthetic peptide with a free carboxyl terminus
# T9 peptide: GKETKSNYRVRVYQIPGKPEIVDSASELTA
# Description: as §2, §3
# [10] = target: T10, RAGE-derived peptide 9 (human); assay: dot blot, non-denatured peptide on nitrocellulose
# T10 construct: Synthetic peptide with a free carboxyl terminus
# T10 peptide: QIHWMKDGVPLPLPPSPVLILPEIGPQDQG
# Description: as §2, §3
# [11] = target: T11, RAGE-derived peptide 8 (human); assay: dot blot, non-denatured peptide on nitrocellulose
# T11 construct: Synthetic peptide with a free carboxyl terminus
# T11 peptide: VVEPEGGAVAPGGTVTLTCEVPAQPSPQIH
# Description: as §2, §3
# [12] = target: T12, RAGE-derived peptide 10 (human); assay: dot blot, non-denatured peptide on nitrocellulose
# T12 construct: Synthetic peptide with a free carboxyl terminus
# T12 peptide: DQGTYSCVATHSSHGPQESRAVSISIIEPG
# Description: as §2, §3
# [13] = target: T13, E. coli RAGE Construct #3, 6His-(Thr)-[RAGE (24-234)] (human, UniProt Q15109 24-234); assay: ELISA: RAGE 24-234 (E. coli, D#1475) coated, mAb titrated, anti-mouse HRP conjugate, TMB
# T13 construct: Expressed in E. coli with an N-terminal 6His-(Thr) tag, which is part of the entry; also called RAGE protein #3
# Procedure: as §1
Binder,EC50 (read off the curve) [1] [nM],binding result [2],binding result [3],binding result [4],binding result [5],binding result [6],binding result [7],binding result [8],binding result [9],binding result [10],binding result [11],binding result [12],binding result [13],binding result [1]
B1,~0.03,no binding,no binding,no binding,no binding,no binding,no binding,no binding,no binding,no binding,no binding,no binding,no binding,–
B2,–,no binding,no binding,no binding,no binding,no binding,no binding,no binding,no binding,no binding,no binding,no binding,no binding,no binding
B3,~0.04,no binding,no binding,no binding,no binding,no binding,no binding,no binding,no binding,no binding,no binding,no binding,no binding,–
